According to the supplement of paper PMC12458215:
± gives the uncertainty stated by the source.

System: HEK293T
Assay: plasma membrane surface immunostaining intensity (anti-HA, deep receptor scanning) (arbitrary fluorescence units); higher = higher plasma membrane expression

## MVNQSSTPGFLLLGFSEHPGLERTLFVVVLTSYLLTLVGNTLIILLSALDPKLHSPMYFFLSNLSFLDLCFTTSCVPQMLVNLWGPKKTISFLDCSVQIFIFLSLGTTECILLTVMAFDRYVAVCQPLHYATIIHPRLCWQLASVAWVIGLVESVVQTPSTLHLPFCPDRQVDDFVCEVPALIRLSCEDTSYNEIQVAVASVFILVVPLSLILVSYGAITWAVLRINSAKGRRKAFGTCSSHLTVVTLFYSSVIAVYLQPKNPYAQERGKFFGLFYAVGTPSLNPLIYTLRNKEVTRAFRRLLGKEMGLTQS [OR2H2]
GPCR class: A (Olfactory)
  plasma membrane surface immunostaining intensity: 145 ± 10

## MVPHLLLLCLLPLVRATEPHEGRADEQSAEAALAVPNASHFFSWNNYTFSDWQNFVGRRRYGAESQNPTVKALLIVAYSFIIVFSLFGNVLVCHVIFKNQRMHSATSLFIVNLAVADIMITLLNTPFTLVRFVNSTWIFGKGMCHVSRFAQYCSLHVSALTLTAIAVDRHQVIMHPLKPRISITKGVIYIAVIWTMATFFSLPHAICQKLFTFKYSEDIVRSLCLPDFPEPADLFWKYLDLATFILLYILPLLIISVAYARVAKKLWLCNMIGDVTTEQYFALRRKKKKTIKMLMLVVVLFALCWFPLNCYVLLLSSKVIRTNNALYFAFHWFAMSSTCYNPFIYCWLNENFRIELKALLSMCQRPPKPQEDRPPSPVPSFRVAWTEKNDGQRAPLANNLLPTSQLQSGKTDLSSVEPIVTMS [GPR83]
GPCR class: A
  plasma membrane surface immunostaining intensity: 490 ± 39

## MVWENQTFNSIFILLGIFNHSPTHTFLFSLVLGIFSLALMENISMVLLIYIEKQLHTPMYFLLSQLSLMDLMLICTTLPKMIFSYLSGKKSISLAGCGTQIFFYVSLLGAECFLLAVMAYDRYVAICHPLQYTILMNPKLCVFMTVASWTLGSLDGIIVLAAVLSFSYCSSLEIHHFFCDVAALLPLSCTETSAFERLLVICCVVMLIFPVSVIILSYSHVLRAVIHMGSGESRRKAFTTCSSHLSVVGLYYGAAMFMYMRPASKHTPDQDKMVSAFYTILTPMLNPLIYSLRNKEVFRALQKVLKKRKLI [OR2M4]
GPCR class: A (Olfactory)
  plasma membrane surface immunostaining intensity: 172 ± 36

## MWGRLLLWPLVLGFSLSGGTQTPSVYDESGSTGGGDDSTPSILPAPRGYPGQVCANDSDTLELPDSSRALLLGWVPTRLVPALYGLVLVVGLPANGLALWVLATQAPRLPSTMLLMNLAAADLLLALALPPRIAYHLRGQRWPFGEAACRLATAALYGHMYGSVLLLAAVSLDRYLALVHPLRARALRGRRLALGLCMAAWLMAAALALPLTLQRQTFRLARSDRVLCHDALPLDAQASHWQPAFTCLALLGCFLPLLAMLLCYGATLHTLAASGRRYGHALRLTAVVLASAVAFFVPSNLLLLLHYSDPSPSAWGNLYGAYVPSLALSTLNSCVDPFIYYYVSAEFRDKVRAGLFQRSPGDTVASKASAEGGSRGMGTHSSLLQ [F2RL3]
GPCR class: A
  plasma membrane surface immunostaining intensity: 894 ± 240

## MWNATPSEEPGFNLTLADLDWDASPGNDSLGDELLQLFPAPLLAGVTATCVALFVVGIAGNLLTMLVVSRFRELRTTTNLYLSSMAFSDLLIFLCMPLDLVRLWQYRPWNFGDLLCKLFQFVSESCTYATVLTITALSVERYFAICFPLRAKVVVTKGRVKLVIFVIWAVAFCSAGPIFVLVGVEHENGTDPWDTNECRPTEFAVRSGLLTVMVWVSSIFFFLPVFCLTVLYSLIGRKLWRRRRGDAVVGASLRDQNHKQTVKMLAVVVFAFILCWLPFHVGRYLFSKSFEPGSLEIAQISQYCNLVSFVLFYLSAAINPILYNIMSKKYRVAVFRLLGFEPFSQRKLSTLKDESSRAWTESSINT [GHSR]
GPCR class: A
  plasma membrane surface immunostaining intensity: 1480 ± 520

## MWPNGSSLGPCFRPTNITLEERRLIASPWFAASFCVVGLASNLLALSVLAGARQGGSHTRSSFLTFLCGLVLTDFLGLLVTGTIVVSQHAALFEWHAVDPGCRLCRFMGVVMIFFGLSPLLLGAAMASERYLGITRPFSRPAVASQRRAWATVGLVWAAALALGLLPLLGVGRYTVQYPGSWCFLTLGAESGDVAFGLLFSMLGGLSVGLSFLLNTVSVATLCHVYHGQEAAQQRPRDSEVEMMAQLLGIMVVASVCWLPLLVFIAQTVLRNPPAMSPAGQLSRTTEKELLIYLRVATWNQILDPWVYILFRRAVLRRLQPRLSTRPRSLSLQPQLTQRSGLQ [TBXA2R]
GPCR class: A
  plasma membrane surface immunostaining intensity: 6469 ± 48

## MWQEYYFLNVFFPLLKVCCLTINSHVVILLPWECYHLIWKILPYIGTTVGSMEEYNTSSTDFTFMGLFNRKETSGLIFAIISIIFFTALMANGVMIFLIQTDLRLHTPMYFLLSHLSLIDMMYISTIVPKMLVNYLLDQRTISFVGCTAQHFLYLTLVGAEFFLLGLMAYDRYVAICNPLRYPVLMSRRVCWMIIAGSWFGGSLDGFLLTPITMSFPFCNSREINHFFCEAPAVLKLACADTALYETVMYVCCVLMLLIPFSVVLASYARILTTVQCMSSVEGRKKAFATCSSHMTVVSLFYGAAMYTYMLPHSYHKPAQDKVLSVFYTILTPMLNPLIYSLRNKDVTGALKRALGRFKGPQRVSGGVF [OR2T1]
GPCR class: A (Olfactory)
  plasma membrane surface immunostaining intensity: 451 ± 170

## MWQKNQTSLADFILEGLFDDSLTHLFLFSLTMVVFLIAVSGNTLTILLICIDPQLHTPMYFLLSQLSLMDLMHVSTIILKMATNYLSGKKSISFVGCATQHFLYLCLGGAECFLLAVMSYDRYVAICHPLRYAVLMNKKVGLMMAVMSWLGASVNSLIHMAILMHFPFCGPRKVYHFYCEFPAVVKLVCGDITVYETTVYISSILLLLPIFLISTSYVFILQSVIQMRSSGSKRNAFATCGSHLTVVSLWFGACIFSYMRPRSQCTLLQNKVGSVFYSIITPTLNSLIYTLRNKDVAKALRRVLRRDVITQCIQRLQLWLPRV [OR2AE1]
GPCR class: A (Olfactory)
  plasma membrane surface immunostaining intensity: 159 ± 49

## MYKDCIESTGDYFLLCDAEGPWGIILESLAILGIVVTILLLLAFLFLMRKIQDCSQWNVLPTQLLFLLSVLGLFGLAFAFIIELNQQTAPVRYFLFGVLFALCFSCLLAHASNLVKLVRGCVSFSWTTILCIAIGCSLLQIIIATEYVTLIMTRGMMFVNMTPCQLNVDFVVLLVYVLFLMALTFFVSKATFCGPCENWKQHGRLIFITVLFSIIIWVVWISMLLRGNPQFQRQPQWDDPVVCIALVTNAWVFLLLYIVPELCILYRSCRQECPLQGNACPVTAYQHSFQVENQELSRARDSDGAEEDVALTSYGTPIQPQTVDPTQECFIPQAKLSPQQDAGGV [GPRC5D]
GPCR class: C
  plasma membrane surface immunostaining intensity: 6410 ± 68
